The target in the test is T1, eIF4E (mouse, endogenous in Pten^L/L prostate tissue) (mouse, UniProt P63073 2-217).
T1 construct: Endogenous protein in mouse prostate tumor tissue, detected with an antibody (SCBT) in a proximity ligation assay; also called eIF4E translation initiation factor; eukaryotic translation initiation factor 4E
The test can be described thus: in situ proximity ligation assay on castrate vs intact Pten^L/L mouse prostate tumors; confirmed by m7GTP cap-binding assay. The procedure: Flash frozen intact and castrate Pten^{L/L} ventral prostates dissected from each animal or from AR+ parental and AR− APIPC tumors were pulverized with mortar and pestle in appropriate volumes of lysis buffer containing 10 mM Tris/HCL pH 7.6, 140 mM KCl, 4 mM MgCl₂, 1 mM DTT, 1 mM EDTA, 1% Nonidet P-40 supplemented with phosphatase and protease inhibitor cocktails (Roche) and lysed for 30 min on ice. Lysates were cleared by centrifugation at 12000 rpm for 25 min at 4° C. Supernatants were collected and assayed for protein concentration using the Protein Assay Dye Reagent (Bio-Rad). 250 μg of protein were incubated rotating with 50 μl of γ-aminophenyl-m7GTP (C10-spacer)-agarose beads (Jena Bioscience) in lysis buffer without Nonidet P-40 at 4° C. overnight. After two washes in lysis buffer containing 0.5% Nonidet P-40 and two washes in PBS, beads were re-suspended in 60 μl of 1×SDS loading buffer and boiled for 5 min. Thirty microliters of boiled lysates were western blotted for eIF4G, eIF4E, and 4EBP1.
To test this hypothesis, proximity ligation assays (PLA) for eIF4E-eIF4G interactions and eIF4E-4EBP1 interactions were optimized (FIG. 2A). […] This was also confirmed by the cap-binding assay (FIG. 11A). […]

The values below come from patent publication US20220249439A1 (FRED HUTCHINSON CANCER RESEARCH CENTER, published 2022).

T1 sequence (P63073 2-217 limits assumed): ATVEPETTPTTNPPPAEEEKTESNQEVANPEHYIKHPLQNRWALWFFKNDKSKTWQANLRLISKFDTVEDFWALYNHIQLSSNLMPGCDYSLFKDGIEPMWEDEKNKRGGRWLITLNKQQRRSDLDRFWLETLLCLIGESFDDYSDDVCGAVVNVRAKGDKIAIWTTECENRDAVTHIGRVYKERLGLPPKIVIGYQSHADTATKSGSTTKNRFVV

B1: 4EBP1 (mouse, endogenous in Pten^L/L prostate tissue) (other, UniProt Q60876 2-117, looked up)
chain: SAGSSCSQTPSRAIPTRRVALGDGVQLPPGDYSTTPGGTLFSTTPGGTRIIYDRKFLMECRNSPVAKTPPKDLPAIPGVTSPTSDEPPMQASQSQLPSSPEDKRAGGEESQFEMDI
notes: Endogenous protein
For B1, the binding result is reported as “binds”.
